Source: article PMC4357726

Molecular target: T1, TtHisRS (histidyl-tRNA synthetase) (Thermus thermophilus HB27 (ATCC …, UniProt P62374 1-421))
T1 sequence: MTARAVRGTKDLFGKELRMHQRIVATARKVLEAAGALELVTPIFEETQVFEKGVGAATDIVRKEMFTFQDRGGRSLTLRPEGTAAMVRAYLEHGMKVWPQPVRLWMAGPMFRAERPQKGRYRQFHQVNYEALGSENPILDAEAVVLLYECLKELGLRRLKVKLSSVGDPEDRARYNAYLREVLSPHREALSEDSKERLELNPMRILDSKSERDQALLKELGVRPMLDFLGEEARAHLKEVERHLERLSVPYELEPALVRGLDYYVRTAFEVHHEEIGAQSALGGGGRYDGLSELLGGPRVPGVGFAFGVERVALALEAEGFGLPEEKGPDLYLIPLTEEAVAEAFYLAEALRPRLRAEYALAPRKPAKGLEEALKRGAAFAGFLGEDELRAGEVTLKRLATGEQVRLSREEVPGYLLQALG
Test: X-ray crystallography

B1: tRNAHis(GUG) transcript (TttRNAHis) (structured_RNA)
RNA: GGUGAGCGUAGCUCAGCUGGUAGACCACCGGACUGAGAUCCGGGGGUCGUGGGUUCAAGUCCCAUCGCUCACCCCA
B1: binds.
